Assay results: patent US20160090427A1 (SAMSUNG ELECTRONICS, published 2016)

B1: AbF46, mouse monoclonal antibody to c-Met (antibody, V domains shown)
VH: EVKLVESGGGLVQPGGSLRLSCATSGFTFTDYYMSWVRQPPGKALEWLGFIRNKANGYTTEYSASVKGRFTISRDNSQSILYLQMDTLRAEDSATYYCARDNWFAYWGQGTLVTVSA
VL: DILMTQSPSSLTVSAGEKVTMSCKSSQSLLASGNQNNYLAWHQQKPGRSPKMLIIWASTRVSGVPDRFIGSGSGTDFTLTINSVQAEDLAVYYCQQSYSAPLTFGAGTKLELK
notes: Tested as hybridoma culture supernatant in the selection ELISA; also called antibody of hybridoma KCLRF-BP-00220
B2: MV-22 anti-c-Met/anti-VEGF bispecific antibody (bispecific antibody, human IgG2, kappa)
heavy: EVQLVESGGGLVQPGGSLRLSCAASGFTFTDYYMSWVRQAPGKGLEWLGFIRNKANGYTTEYSASVKGRFTISRDNSKNTLYLQMNSLRAEDTAVYYCARDNWFAYWGQGTLVTVSSASTKGPSVFPLAPCSRSTSESTAALGCLVKDYFPEPVTVSWNSGALTSGVHTFPAVLQSSGLYSLSSVVTVPSSNFGTQTYTCNVDHKPSNTKVDKTVERKCCVECPPCPAPPVAGPSVFLFPPKPKDTLMISRTPEVTCVVVDVSHEDPEVQFNWYVDGVEVHNAKTKPREEQFNSTFRVVSVLTVVHQDWLNGKEYKCKVSNKGLPAPIEKTISKTKGQPREPQVYTLPPSREEMTKNQVSLTCLVKGFYPSDIAVEWESNGQPENNYKTTPPMLDSDGSFFLYSKLTVDKSRWQQGNVFSCSVMHEALHNHYTQKSLSLSPGKGGGGSGGGGSEVQLLESGGGLVQTGGSLRLSCAASGFTFSDYAMSWVRQAPGKGLEWVSWIYPGDSSIYYADSVKGRFTISRDNSKNTLYLQMNSLRAEDTAVYYCARLLSIDQAQLHYYYDAMDVWGQGTLVTVSSGGGGSGGGGSGGGGSQSVLTQPPSPSGTPGQRVTISCTGSSSNIGNYYVYWYQQLPGTAPKLLIYANSHRPSGVPDRFSGSKSGTSASLAISGLRSEDEADYYCGSWDDSLSAYVFGGGTKLTVLG
light: DIQMTQSPSSLSASVGDRVTITCKSSQSLLASGNQNNYLAWYQQKPGKAPKMLIIWASTRVSGVPSRFSGSGSGTDFTLTISSLQPEDFATYYCQQSYSRPYTFGQGTKVEIKRTVAAPSVFIFPPSDEQLKSGTASVVCLLNNFYPREAKVQWKVDNALQSGNSQESVTEQDSKDSTYSLSSTLTLSKADYEKHKVYACEVTHQGLSSPVTKSFNRGEC

Key:
[1] = biological target: T1, human c-Met/Fc fusion protein (R&D Systems) (human, UniProt P08581 25-932); test: ELISA, human c-Met/Fc fusion protein coated on plate, hybridoma culture, anti-mouse IgG-HRP
T1 construct: Bought reagent; also called c-Met-Fc (#358-MT/CF, R&D Systems); human c-Met/Fc protein; not shown: Fc part of the bought fusion protein
Procedure: Human c-Met/Fc fusion protein was seeded in an amount of 50 μL (2 μg/mL)/well to microtiter plates and allowed to adhere to the surface of each well. The antibody that remained unbound was removed by washing.
The hybridoma cell culture obtained in Reference Example 1.1.2 was added in an amount of 50 μL to each well of the plates and incubated for 1 hour. The cells remaining unreacted were washed out with a sufficient amount of Tris-buffered saline and Tween 20 (TBST). Goat anti-mouse IgG-horseradish peroxidase (HRP) was added to the plates and incubated for 1 hour at room temperature. The plates were washed with a sufficient amount of TBST, followed by reacting the peroxidase with a substrate (OPD). Absorbance at 450 nm was measured on an ELISA reader.

[2] = biological target: T1, human c-Met/Fc fusion protein (R&D …); test: SPR (Biacore T100), bispecific captured by human Fab binder on CM5 chip, c-Met-Fc injected
Procedure: An examination on whether the anti-c-Met/anti-VEGF bispecific antibody maintains binding affinity to c-Met was conducted using Biacore T100(GE). A human Fab binding agent (GE Healthcare) was immobilized onto a CM5 chip (#BR-1005-30, GE) according to the manufacturer's instructions. About 90˜120 RU of the anti-c-Met/anti-VEGF bispecific antibody was captured, and c-Met-Fc (#358-MT/CF, R&D Systems) was injected thereto at various concentrations. Then, 10 mM Glycine-HCl (pH 2.1) solution was injected thereto to regenerate the surface. The obtained data were fitted using BlAevaluation software (GE Healthcare, Biacore T100 evaluation software), to measure the binding affinity to c-Met.

[3] = biological target: VEGF (R&D systems) (UniProt P15692-4 27-191, limits assumed); test: SPR (Biacore T100), CM5 chip, VEGF; format unclear in the text
Procedure: An examination on whether the 8 anti-c-Met/anti-VEGF bispecific antibodies prepared in Example 2 maintains binding affinity to VEGF was conducted using Biacore T100(GE). VEGF (R&D systems) immobilized on the surface of CM5 chip (#BR-1005-30, GE) by amino coupling according to the manufacturer's instructions. About 90˜120 RU of the anti-c-Met/anti-VEGF bispecific antibody was captured, and […] was injected thereto at various concentrations. Then, a solution containing 1M NaCl and 5 mM NaOH was injected thereto to regenerate the surface. The obtained data were fitted using BlAevaluation software (GE Healthcare, Biacore T100 evaluation software), to measure the binding affinity to VEGF.

T1 sequence (P08581 25-932 limits assumed): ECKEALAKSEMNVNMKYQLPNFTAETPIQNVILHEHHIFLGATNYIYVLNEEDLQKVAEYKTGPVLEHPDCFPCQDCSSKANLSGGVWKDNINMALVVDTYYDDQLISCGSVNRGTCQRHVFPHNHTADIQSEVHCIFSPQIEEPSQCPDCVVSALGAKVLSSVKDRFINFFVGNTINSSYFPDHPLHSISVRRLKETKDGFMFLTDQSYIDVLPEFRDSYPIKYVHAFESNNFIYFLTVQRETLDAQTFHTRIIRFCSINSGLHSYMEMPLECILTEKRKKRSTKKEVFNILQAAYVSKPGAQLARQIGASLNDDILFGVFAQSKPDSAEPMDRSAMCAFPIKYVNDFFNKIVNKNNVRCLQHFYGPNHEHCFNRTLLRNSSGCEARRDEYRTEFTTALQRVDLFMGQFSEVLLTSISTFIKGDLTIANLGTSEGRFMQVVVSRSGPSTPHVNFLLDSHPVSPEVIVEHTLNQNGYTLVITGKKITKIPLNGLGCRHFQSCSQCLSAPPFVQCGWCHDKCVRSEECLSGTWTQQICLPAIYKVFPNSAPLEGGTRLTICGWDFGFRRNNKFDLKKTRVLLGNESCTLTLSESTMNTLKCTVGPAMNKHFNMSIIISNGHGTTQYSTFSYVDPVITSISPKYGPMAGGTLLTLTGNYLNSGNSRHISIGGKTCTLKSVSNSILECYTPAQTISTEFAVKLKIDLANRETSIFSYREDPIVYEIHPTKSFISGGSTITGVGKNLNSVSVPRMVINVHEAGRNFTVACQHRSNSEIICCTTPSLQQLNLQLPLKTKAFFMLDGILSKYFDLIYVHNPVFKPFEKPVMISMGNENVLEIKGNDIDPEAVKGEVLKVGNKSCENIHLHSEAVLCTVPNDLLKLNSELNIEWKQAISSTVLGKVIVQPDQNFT
VEGF (R&D systems), sequence (P15692 other isoform, or with tags, fused parts or gaps limits assumed): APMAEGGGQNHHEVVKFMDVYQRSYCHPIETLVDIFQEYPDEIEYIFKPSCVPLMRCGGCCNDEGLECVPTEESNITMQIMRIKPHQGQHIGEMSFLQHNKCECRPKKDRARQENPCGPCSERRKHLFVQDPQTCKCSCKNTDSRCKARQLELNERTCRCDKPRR

Binder | binding result [1] | Kd [2] [nM] | Kd [3] [nM]
B1 | binds |  | 
B2 |  | 0.06 | 2.2
